± gives the uncertainty stated by the source.

This data set can be described thus: self-splicing fitness, log relative to wild type (ln ratio); higher = more splicing; Tetrahymena group I intron in knt gene, E. coli kanamycin selection, DiMSum; sequences stand for … in CUCUCU…GGAGGGAAAAGUUAUCAGGCAUGCACCUGGUAGCUAGUCUUUAAACCAAUAGAUUGCAUCGGUUUAAAAGGCAAGACCGUCAAAUUGCGGGAAAGGGGUCAACAGCCGUUCAGUACCAAGUCUCAGGGGAAACUUUGAGAUGGCCUUGCAAAGGGUAUGGUAAUAAGCUGACGGACAUGGUCCUAACCACGCAGCCAAGUCCUAAGUCAACAGAUCUUCUGUUGAUAUGGAUGCAGUUCACAGACUAAAUGUCGGUCGGGGAAGAUGUAUUCUUCUCAUAAGAUAUAGUCGGACCUCUCCUUAAUGGGAGCUAGCGGAUGAAGUGAUGCAACACUGGAGCCGCUGGGAACUAAUUUGUAUGCGAAAGUAUAUUGAUUAGUUUUGGAGUACUCGUGGUCG
Put shortly: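 Fitness was computed with DiMSum as the error-weighted combination of replicate fold changes, kanamycin versus none, each normalised to wild type. The library randomised all eight intron nucleotides of the P1ex region, with the intron placed in the knt kanamycin-resistance gene on pET-22b(+) in E. coli BL21(DE3). Six replicate transformations were grown overnight at 37°C or 30°C on LB agar with or without 25 μg/mL kanamycin, plus 100 μg/mL carbenicillin, 50 μM IPTG and 0.2% rhamnose. Pooled colonies were amplicon-sequenced on an Illumina HiSeq 2500.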

For the sequence UGUAAGCAAUAUUACGUCAA, the “self-splicing fitness (ln)” value reads like this: (30 °C) -2.57 ± 0.18; (37 °C) -0.839 ± 0.16.
Take UGUAAGCAAUAUUACGUCGA: the “self-splicing fitness (ln)” value reads like this: (30 °C) -1.42 ± 0.1; (37 °C) -0.213 ± 0.12.
With UGUAAGCAAUAUUACGUCGC, the “self-splicing fitness (ln)” value is -3.46 ± 0.33 (30 °C) and -1.65 ± 0.2 (37 °C).
Take UGUAAGCAAUAUUACGUGGU: the “self-splicing fitness (ln)” value runs as follows: (30 °C) -3.15 ± 0.13; (37 °C) -3.76 ± 0.27.
On to UGUCAGCAAUAUUACGAACG, for which the “self-splicing fitness (ln)” value by setting is: (30 °C) -0.137 ± 0.086; (37 °C) 0.589 ± 0.11.
On the same counts, the results for UGUCAGCAAUAUUACGAGCC are -1.74 ± 0.24 and -0.631 ± 0.27.
On the same counts, the results for UGUCAGCAAUAUUACGAGCU are -0.801 ± 0.088 and -0.417 ± 0.11.
Consider UGUCAGCAAUAUUACGAUAC, for which the “self-splicing fitness (ln)” value (30 °C) was -2.92 ± 0.24 and the “self-splicing fitness (ln)” value (37 °C) was -2.41 ± 0.22.
For UGUCAGCAAUAUUACGAUCG the same measures were 0.238 ± 0.098 and 0.647 ± 0.12.
In the case of UGUCAGCAAUAUUACGAUGA, the “self-splicing fitness (ln)” value is, setting by setting: (30 °C) 0.232 ± 0.075; (37 °C) 0.333 ± 0.09.
For UGUCAGCAAUAUUACGAUGG the same measures were -0.3 ± 0.073 and 0.195 ± 0.098.
On the same counts, the results for UGUCAGCAAUAUUACGAUGU are -1.36 ± 0.073 and -0.317 ± 0.093.
On the same counts, the results for UGUCAGCAAUAUUACGCAGG are -2.52 ± 0.2 and -3.19 ± 0.26.
For the sequence UGUCAGCAAUAUUACGCAUC, the “self-splicing fitness (ln)” value runs as follows: (30 °C) -2.61 ± 0.12; (37 °C) -1.57 ± 0.11.
On the same counts, the results for UGUCAGCAAUAUUACGCCUU are -1.38 ± 0.13 and -0.87 ± 0.14.
For UGUCAGCAAUAUUACGCGCU the same measures were -0.874 ± 0.17 and -0.182 ± 0.17.
With UGUCAGCAAUAUUACGGACU, the “self-splicing fitness (ln)” value reads like this: (30 °C) -1.36 ± 0.12; (37 °C) 0.712 ± 0.13.
Consider UGUCAGCAAUAUUACGGAGC, for which the “self-splicing fitness (ln)” value (37 °C) is -2.89 ± 0.43.
UGUCAGCAAUAUUACGUAAA: the “self-splicing fitness (ln)” value (30 °C) was -0.534 ± 0.13 and the “self-splicing fitness (ln)” value (37 °C) is -0.324 ± 0.16.
For UGUCAGCAAUAUUACGUAAC the same measures were -2.38 ± 0.24 and 0.145 ± 0.26.
For UGUCAGCAAUAUUACGUGGG the same measures were -1.94 ± 0.073 and -0.96 ± 0.082.
For UGUCAGCAAUAUUACGUGUG the same measures were -0.636 ± 0.048 and 0.0859 ± 0.065.
Turning to UGUGAGCAAUAUUACGACGU, the “self-splicing fitness (ln)” value (30 °C) is -3.72 ± 0.18 and the “self-splicing fitness (ln)” value (37 °C) was -2.29 ± 0.16.
For UGUGAGCAAUAUUACGACUA the same measures were -0.569 ± 0.2 and -1.07 ± 0.19.
For UGUGAGCAAUAUUACGAGAU the same measures were -3.75 ± 0.37 and -2.53 ± 0.41.
For UGUGAGCAAUAUUACGAUCC the same measures were -2.29 ± 0.31 and -1.87 ± 0.39.
Regarding UGUGAGCAAUAUUACGCACU, the “self-splicing fitness (ln)” value (30 °C) was -2.44 ± 0.16 and the “self-splicing fitness (ln)” value (37 °C) is -0.665 ± 0.12.
On to UGUGAGCAAUAUUACGCAGA, for which the “self-splicing fitness (ln)” value (30 °C) is -2.79 ± 0.29 and the “self-splicing fitness (ln)” value (37 °C) is -1.83 ± 0.48.
Turning to UGUGAGCAAUAUUACGCAUC, the “self-splicing fitness (ln)” value (37 °C) was -2.15 ± 0.26.
Regarding UGUGAGCAAUAUUACGCAUU, the “self-splicing fitness (ln)” value reads like this: (30 °C) -4.49 ± 0.29; (37 °C) -1.77 ± 0.3.
Take UGUGAGCAAUAUUACGCUUU: the “self-splicing fitness (ln)” value (30 °C) is -3.5 ± 0.33 and the “self-splicing fitness (ln)” value (37 °C) was -3.83 ± 0.33.
For UGUGAGCAAUAUUACGGACU the same measures were -2.24 ± 0.22 and -0.378 ± 0.22.
As for UGUGAGCAAUAUUACGGCCG, the “self-splicing fitness (ln)” value is, setting by setting: (30 °C) -0.763 ± 0.15; (37 °C) 0.477 ± 0.27.
For UGUGAGCAAUAUUACGGCGG the same measures were -2.35 ± 0.2 and -0.738 ± 0.19.
On the same counts, the results for UGUGAGCAAUAUUACGGCGU are -3.33 ± 0.3 and -1.92 ± 0.32.
UGUGAGCAAUAUUACGGCUU: the “self-splicing fitness (ln)” value is, setting by setting: (30 °C) -2.85 ± 0.27; (37 °C) -1.81 ± 0.23.
In the case of UGUGAGCAAUAUUACGGGAU, the “self-splicing fitness (ln)” value was -4.32 ± 0.41 (30 °C) and -2.17 ± 0.38 (37 °C).
For UGUGAGCAAUAUUACGGGUA, the “self-splicing fitness (ln)” value was -2.92 ± 0.2 (30 °C) and -2.86 ± 0.31 (37 °C).
For UGUGAGCAAUAUUACGUACU, the “self-splicing fitness (ln)” value reads like this: (30 °C) -1.72 ± 0.17; (37 °C) 0.399 ± 0.15.
With UGUGAGCAAUAUUACGUCAU, the “self-splicing fitness (ln)” value (37 °C) was -1.32 ± 0.4.
Still for that read-out and setting: then UGUGAGCAAUAUUACGUGGC, with -1.97 ± 0.4.
Take UGUGAGCAAUAUUACGUUUU: the “self-splicing fitness (ln)” value was -3.15 ± 0.27 (30 °C) and -2.98 ± 0.37 (37 °C).
For UGUUAGCAAUAUUACGAACG the same measures were -0.101 ± 0.092 and -0.499 ± 0.11.
With UGUUAGCAAUAUUACGACUG, the “self-splicing fitness (ln)” value (30 °C) is 0.492 ± 0.095 and the “self-splicing fitness (ln)” value (37 °C) is 0.167 ± 0.12.
With UGUUAGCAAUAUUACGCAAG, the “self-splicing fitness (ln)” value runs as follows: (30 °C) -3.38 ± 0.37; (37 °C) -2.13 ± 0.4.
Take UGUUAGCAAUAUUACGCUAA: the “self-splicing fitness (ln)” value (30 °C) is -2.05 ± 0.4.
Consider UGUUAGCAAUAUUACGCUGC, for which the “self-splicing fitness (ln)” value is, setting by setting: (30 °C) -1.63 ± 0.18; (37 °C) -2.44 ± 0.32.
On the same counts, the results for UGUUAGCAAUAUUACGGACC are 0.127 ± 0.12 and 0.443 ± 0.16.
Take UGUUAGCAAUAUUACGGAGU: for the setting “37 °C”, the “self-splicing fitness (ln)” value was -2.73 ± 0.27.
As for UGUUAGCAAUAUUACGGCCC, the “self-splicing fitness (ln)” value was -2.13 ± 0.36 (30 °C) and -1.13 ± 0.41 (37 °C).
UGUUAGCAAUAUUACGGCGA: the “self-splicing fitness (ln)” value is 0.174 ± 0.14 (30 °C) and -0.431 ± 0.15 (37 °C).
In the case of UGUUAGCAAUAUUACGGCUU, the “self-splicing fitness (ln)” value by setting is: (30 °C) -0.797 ± 0.16; (37 °C) -0.574 ± 0.19.
For UGUUAGCAAUAUUACGGGCU the same measures were -1.9 ± 0.13 and -1.5 ± 0.17.
For UGUUAGCAAUAUUACGGUAU the same measures were -2.59 ± 0.4 and -1.95 ± 0.28.
On the same counts, the results for UGUUAGCAAUAUUACGGUUG are -1.78 ± 0.14 and -1.2 ± 0.15.
As for UGUUAGCAAUAUUACGUAUC, the “self-splicing fitness (ln)” value (37 °C) was -0.937 ± 0.26.
In the case of UGUUAGCAAUAUUACGUGCU, the “self-splicing fitness (ln)” value reads like this: (30 °C) -1.95 ± 0.13; (37 °C) -1.51 ± 0.13.
On the same counts, the results for UGUUAGCAAUAUUACGUUAA are -1.85 ± 0.27 and -0.838 ± 0.15.
For UGUUAGCAAUAUUACGUUCC the same measures were -2.47 ± 0.29 and -2.03 ± 0.41.
For UGUUAGCAAUAUUACGUUUC the same measures were -3.91 ± 0.46 and -2.06 ± 0.33.
On to UUAAAGCAAUAUUACGAAGG, for which the “self-splicing fitness (ln)” value by setting is: (30 °C) -0.779 ± 0.14; (37 °C) -1.09 ± 0.18.
On the same counts, the results for UUAAAGCAAUAUUACGACCG are -0.379 ± 0.12 and 0.397 ± 0.16.

Values taken from the supplement of paper PMC7877785.
